Data as given in patent publication US20250296959A1, “B7-H3 TARGETING PEPTIDES AND CONSTRUCTS THEREOF” (Mariana Oncology Inc., priority 2024, published 2025).
Starred links: 1 amine or outer side, 2 acyl side, 3 side chain; linkers in the order of their positions; H or OH if unused. Positions of bridges follow the written chain, without caps; N, C: chain ends. Non-standard residues stand in square brackets, D forms with d. Groups on a side chain read outwards from the residue. Primed or numbered codes have the meaning given here. *: point of attachment. Ala(piperidin-4-yl) = O=C([C@H](CC1CCN([*:3])CC1)N[*:1])[*:2]; (2S,3S)βMePhe = C[C@@H](c1ccccc1)[C@H](N[*:1])C(=O)[*:2]; DOTA = O=C(O)CN1CCN(CC(=O)O)CCN(CC(=O)*)CCN(CC(=O)O)CC1; PipAla = piperidinyl-alanine residue (as named); Phe(4-COOH) = N[C@@H](Cc1ccc(C(=O)O)cc1)C(=O)O; Trp(5-F) = N[C@@H](Cc1c[nH]c2ccc(F)cc12)C(=O)O; hydroxyVal = hydroxy-valine residue (as named); PEG4′ = 4x 3-(2-aminoethoxy)propanoic acid; 1Nal = N[C@@H](Cc1cccc2ccccc12)C(=O)O; Ala(4-THP) = N[C@@H](CC1CCOCC1)C(=O)O; Val(3-OH) = CC(C)(O)[C@H](N)C(=O)O; 4Pal = N[C@@H](Cc1ccncc1)C(=O)O; aThr = C[C@H](O)[C@H](N)C(=O)O; Chg = N[C@H](C(=O)O)C1CCCCC1; Tle = CC(C)(C)[C@H](N)C(=O)O; hLeu = CC(C)CC[C@H](N)C(=O)O; Sar = CNCC(=O)O

T1: B7-H3 on Calu-6 cells (human, UniProt Q5ZPR3 29-534)
T1 construct: whole, on cells
T1 sequence (looked up): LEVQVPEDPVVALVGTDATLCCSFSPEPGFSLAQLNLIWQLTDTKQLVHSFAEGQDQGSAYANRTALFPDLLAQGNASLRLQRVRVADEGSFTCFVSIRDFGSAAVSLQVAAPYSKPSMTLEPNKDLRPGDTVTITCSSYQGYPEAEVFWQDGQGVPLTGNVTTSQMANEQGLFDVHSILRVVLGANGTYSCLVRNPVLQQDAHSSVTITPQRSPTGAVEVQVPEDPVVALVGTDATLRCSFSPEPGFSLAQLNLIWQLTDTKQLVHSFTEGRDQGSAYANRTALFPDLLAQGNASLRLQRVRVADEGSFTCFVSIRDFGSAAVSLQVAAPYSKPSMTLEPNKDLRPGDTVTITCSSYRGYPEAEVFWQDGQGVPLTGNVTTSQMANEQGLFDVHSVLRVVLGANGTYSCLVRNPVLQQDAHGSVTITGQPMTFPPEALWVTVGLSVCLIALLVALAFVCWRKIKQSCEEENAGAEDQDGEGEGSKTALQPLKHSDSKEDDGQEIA


The binders below were run against T1, B7-H3 on Calu-6 cells (assay: 177Lu-labelled peptide on Calu-6 cells, % cell associated fraction; B = 25<%<=50).

% cell associated fraction | Binder
25 to 50% | Ac-[hLeu]YC[Tle]GK[4Pal]DVYCWFT[dK](DOTA)-NH2 (disulfide 3-11; SMILES CC(=O)N[C@@H](CCC(C)C)C(=O)N[C@@H](Cc1ccc(O)cc1)C(=O)N[C@H]1CSSC[C@@H](C(=O)N[C@@H](Cc2c[nH]c3ccccc23)C(=O)N[C@@H](Cc2ccccc2)C(=O)N[C@H](C(=O)N[C@H](CCCCNC(=O)CN2CCN(CC(=O)O)CCN(CC(=O)O)CCN(CC(=O)O)CC2)C(N)=O)[C@@H](C)O)NC(=O)[C@H](Cc2ccc(O)cc2)NC(=O)[C@H](C(C)C)NC(=O)[C@H](CC(=O)O)NC(=O)[C@H](Cc2ccncc2)NC(=O)[C@H](CCCCN)NC(=O)CNC(=O)[C@H](C(C)(C)C)NC1=O) [Cpd 157]
25 to 50% | Ac-[hLeu]YCV[Sar]KYDVYCWFT[dK](DOTA)-NH2 (disulfide 3-11; SMILES CC(=O)N[C@@H](CCC(C)C)C(=O)N[C@@H](Cc1ccc(O)cc1)C(=O)N[C@H]1CSSC[C@@H](C(=O)N[C@@H](Cc2c[nH]c3ccccc23)C(=O)N[C@@H](Cc2ccccc2)C(=O)N[C@H](C(=O)N[C@H](CCCCNC(=O)CN2CCN(CC(=O)O)CCN(CC(=O)O)CCN(CC(=O)O)CC2)C(N)=O)[C@@H](C)O)NC(=O)[C@H](Cc2ccc(O)cc2)NC(=O)[C@H](C(C)C)NC(=O)[C@H](CC(=O)O)NC(=O)[C@H](Cc2ccc(O)cc2)NC(=O)[C@H](CCCCN)NC(=O)CN(C)C(=O)[C@H](C(C)C)NC1=O) [Cpd 74]
25 to 50% | Ac-[hLeu]YCVGKYDVYC[Trp(5-F)]F[aThr][dK](DOTA)-NH2 (disulfide 3-11) [Cpd 162]
25 to 50% | Ac-[hLeu]YCVGKYDVYC[Trp(5-F)]FP[dK](DOTA)-NH2 (disulfide 3-11) [Cpd 160]

What follows are binders tested against T1, B7-H3 on Calu-6 cells (assay: 177Lu-labelled peptide on Calu-6 cells, % cell associated fraction; C = >50%).

% cell associated fraction | Binder
> 50% | Ac-[hLeu]YCVGK[4Pal]D[Chg]YC[Trp(5-F)]FT[dK](DOTA)-NH2 (disulfide 3-11; SMILES CC(=O)N[C@@H](CCC(C)C)C(=O)N[C@@H](Cc1ccc(O)cc1)C(=O)N[C@H]1CSSC[C@@H](C(=O)N[C@@H](Cc2c[nH]c3ccc(F)cc23)C(=O)N[C@@H](Cc2ccccc2)C(=O)N[C@H](C(=O)N[C@H](CCCCNC(=O)CN2CCN(CC(=O)O)CCN(CC(=O)O)CCN(CC(=O)O)CC2)C(N)=O)[C@@H](C)O)NC(=O)[C@H](Cc2ccc(O)cc2)NC(=O)[C@H](C2CCCCC2)NC(=O)[C@H](CC(=O)O)NC(=O)[C@H](Cc2ccncc2)NC(=O)[C@H](CCCCN)NC(=O)CNC(=O)[C@H](C(C)C)NC1=O) [Cpd 190]
> 50% | Ac-[hLeu]YCV[Sar]KYDVYC[Trp(5-F)]FT[dK](DOTA)-NH2 (disulfide 3-11; SMILES CC(=O)N[C@@H](CCC(C)C)C(=O)N[C@@H](Cc1ccc(O)cc1)C(=O)N[C@H]1CSSC[C@@H](C(=O)N[C@@H](Cc2c[nH]c3ccc(F)cc23)C(=O)N[C@@H](Cc2ccccc2)C(=O)N[C@H](C(=O)N[C@H](CCCCNC(=O)CN2CCN(CC(=O)O)CCN(CC(=O)O)CCN(CC(=O)O)CC2)C(N)=O)[C@@H](C)O)NC(=O)[C@H](Cc2ccc(O)cc2)NC(=O)[C@H](C(C)C)NC(=O)[C@H](CC(=O)O)NC(=O)[C@H](Cc2ccc(O)cc2)NC(=O)[C@H](CCCCN)NC(=O)CN(C)C(=O)[C@H](C(C)C)NC1=O) [Cpd 77]
> 50% | Ac-[hLeu]YCVGK[Ala(4-THP)]DVYC[Trp(5-F)]FT[dK](DOTA)-NH2 (disulfide 3-11; SMILES CC(=O)N[C@@H](CCC(C)C)C(=O)N[C@@H](Cc1ccc(O)cc1)C(=O)N[C@H]1CSSC[C@@H](C(=O)N[C@@H](Cc2c[nH]c3ccc(F)cc23)C(=O)N[C@@H](Cc2ccccc2)C(=O)N[C@H](C(=O)N[C@H](CCCCNC(=O)CN2CCN(CC(=O)O)CCN(CC(=O)O)CCN(CC(=O)O)CC2)C(N)=O)[C@@H](C)O)NC(=O)[C@H](Cc2ccc(O)cc2)NC(=O)[C@H](C(C)C)NC(=O)[C@H](CC(=O)O)NC(=O)[C@H](CC2CCOCC2)NC(=O)[C@H](CCCCN)NC(=O)CNC(=O)[C@H](C(C)C)NC1=O) [Cpd 200]
> 50% | Ac-[hLeu]YC[Tle]GKYDVYCWFT[dK](DOTA)-NH2 (disulfide 3-11; SMILES CC(=O)N[C@@H](CCC(C)C)C(=O)N[C@@H](Cc1ccc(O)cc1)C(=O)N[C@H]1CSSC[C@@H](C(=O)N[C@@H](Cc2c[nH]c3ccccc23)C(=O)N[C@@H](Cc2ccccc2)C(=O)N[C@H](C(=O)N[C@H](CCCCNC(=O)CN2CCN(CC(=O)O)CCN(CC(=O)O)CCN(CC(=O)O)CC2)C(N)=O)[C@@H](C)O)NC(=O)[C@H](Cc2ccc(O)cc2)NC(=O)[C@H](C(C)C)NC(=O)[C@H](CC(=O)O)NC(=O)[C@H](Cc2ccc(O)cc2)NC(=O)[C@H](CCCCN)NC(=O)CNC(=O)[C@H](C(C)(C)C)NC1=O) [Cpd 72]
> 50% | Ac-[hLeu]YCVGKYDVYC[1Nal]FT[dK](DOTA)-NH2 (disulfide 3-11; SMILES CC(=O)N[C@@H](CCC(C)C)C(=O)N[C@@H](Cc1ccc(O)cc1)C(=O)N[C@H]1CSSC[C@@H](C(=O)N[C@@H](Cc2cccc3ccccc23)C(=O)N[C@@H](Cc2ccccc2)C(=O)N[C@H](C(=O)N[C@H](CCCCNC(=O)CN2CCN(CC(=O)O)CCN(CC(=O)O)CCN(CC(=O)O)CC2)C(N)=O)[C@@H](C)O)NC(=O)[C@H](Cc2ccc(O)cc2)NC(=O)[C@H](C(C)C)NC(=O)[C@H](CC(=O)O)NC(=O)[C@H](Cc2ccc(O)cc2)NC(=O)[C@H](CCCCN)NC(=O)CNC(=O)[C@H](C(C)C)NC1=O) [Cpd 158]
> 50% | Ac-[hLeu]YCIGK[Ala(4-THP)]DVYC[Trp(5-F)]F[Val(3-OH)][dK]([PEG4′-DOTA])-OH (disulfide 3-11) [Cpd 308]

Further lines, the binder ahead of its results:

Binder | % cell associated fraction
Ac-[hLeu]YCVGKYDVYC[Trp(5-F)]FT[dK](DOTA)-NH2 (disulfide 3-11; SMILES CC(=O)N[C@@H](CCC(C)C)C(=O)N[C@@H](Cc1ccc(O)cc1)C(=O)N[C@H]1CSSC[C@@H](C(=O)N[C@@H](Cc2c[nH]c3ccc(F)cc23)C(=O)N[C@@H](Cc2ccccc2)C(=O)N[C@H](C(=O)N[C@H](CCCCNC(=O)CN2CCN(CC(=O)O)CCN(CC(=O)O)CCN(CC(=O)O)CC2)C(N)=O)[C@@H](C)O)NC(=O)[C@H](Cc2ccc(O)cc2)NC(=O)[C@H](C(C)C)NC(=O)[C@H](CC(=O)O)NC(=O)[C@H](Cc2ccc(O)cc2)NC(=O)[C@H](CCCCN)NC(=O)CNC(=O)[C@H](C(C)C)NC1=O) [Cpd 73] | > 50%
Ac-[hLeu]YC[Tle]GKYDVYC[Trp(5-F)]FT[dK](DOTA)-NH2 (disulfide 3-11; SMILES CC(=O)N[C@@H](CCC(C)C)C(=O)N[C@@H](Cc1ccc(O)cc1)C(=O)N[C@H]1CSSC[C@@H](C(=O)N[C@@H](Cc2c[nH]c3ccc(F)cc23)C(=O)N[C@@H](Cc2ccccc2)C(=O)N[C@H](C(=O)N[C@H](CCCCNC(=O)CN2CCN(CC(=O)O)CCN(CC(=O)O)CCN(CC(=O)O)CC2)C(N)=O)[C@@H](C)O)NC(=O)[C@H](Cc2ccc(O)cc2)NC(=O)[C@H](C(C)C)NC(=O)[C@H](CC(=O)O)NC(=O)[C@H](Cc2ccc(O)cc2)NC(=O)[C@H](CCCCN)NC(=O)CNC(=O)[C@H](C(C)(C)C)NC1=O) [Cpd 76] | > 50%
Ac-[hLeu]YCVG[Ala(piperidin-4-yl)][Phe(4-COOH)]DVYC[Trp(5-F)]FP[dK](DOTA)-NH2 (disulfide 3-11; SMILES CC(=O)N[C@@H](CCC(C)C)C(=O)N[C@@H](Cc1ccc(O)cc1)C(=O)N[C@H]1CSSC[C@@H](C(=O)N[C@@H](Cc2c[nH]c3ccc(F)cc23)C(=O)N[C@@H](Cc2ccccc2)C(=O)N2CCC[C@H]2C(=O)N[C@H](CCCCNC(=O)CN2CCN(CC(=O)O)CCN(CC(=O)O)CCN(CC(=O)O)CC2)C(N)=O)NC(=O)[C@H](Cc2ccc(O)cc2)NC(=O)[C@H](C(C)C)NC(=O)[C@H](CC(=O)O)NC(=O)[C@H](Cc2ccc(C(=O)O)cc2)NC(=O)[C@H](CC2CCNCC2)NC(=O)CNC(=O)[C@H](C(C)C)NC1=O) [Cpd 286] | > 50%
Ac-[hLeu]YCVGKYD[Chg]YC[Trp(5-F)]FT[dK](DOTA)-NH2 (disulfide 3-11) [Cpd 215] | > 50%

The binders below were run against B7-H3 on Calu-6 cells (human) (UniProt Q5ZPR3) in the same assay as above.

% cell associated fraction | Binder
> 50% | Ac-[hLeu]YC[Tle]G[PipAla][PipAla]([PEG4′-DOTA])DVYC[Trp(5-F)][(2S,3S)βMePhe][Val(3-OH)][dE]-NH2 (disulfide 3-11 (inferred)) [Cpd 495]
> 50% | Ac-[hLeu]YC[Tle]G[PipAla][PipAla]([PEG4′-DOTA])DVYC[Trp(5-F)]F[hydroxyVal][dA]-OH (disulfide 3-11 (inferred)) [Cpd 455]
